Measurements: patent publication US9127249B2, “Method for preparing metabolites of atorvastatin using bacterial cytochrome P450 and composition therefor” (INDUSTRY FOUNDATION OF CHONNAM NATIONAL UNIVERSITY, priority 2011, dated 2015)
Entries after “also recorded” stand apart in the source; their conditions may differ.

Legend:
[1] = Turnover number of atorvastatin oxidation by CYP102A1 enzymes (HPLC); type: biochemical; conditions: 80 μM atorvastatin, FIG. 13; for turnover number in oxidation of atorvastatin: 50 pmol enzyme, NADPH-generating system, 37° C., 30 minutes, production of 4-hydroxylated metabolite by HPLC
Method: It was examined whether the wild-type CYP102A1, the CYP102A1 mutants, and the chimeras derived from the CYP1.02A1 mutants may oxidize atorvastatin. Typical steady-state reactions was performed by adding 50 pmol CYP102A1 and 80 μM substrate to 0.25 ml of 100 mM potassium phosphate buffer solution (pH 7.4). In order to initiate reactions, the NADPH-generating system was added thereto (final concentrations: 10 mM glucose 6-phosphate, 0.5 mM NADP^+, and 1 IU […] per ml). A stock solution of atorvastatin (20 mM) was prepared in DMSO and diluted into the enzyme reaction solution to have a final organic solvent concentration of <1% (v/v).
In order to measure human CYP3A4 activity, 50 pmol P450, 100 pmol NADPH-P450 reductase (CPR), 100 pmol cytochrome b5, and 45 μM L-α-dilauroyl-sn-glycero-3-phosphocholine (DLPC) were used instead of 50 pmol CYP102A1. After the reaction solution was reacted for 30 minutes at 37° C., the reaction was terminated with 2-fold of ice-cold dichloromethane.
After centrifugation of the reaction mixture, a supernatant was removed and a solvent was evaporated under nitrogen gas and analyzed using HPLC. A sample (30 ul) was injected into Gemini C18 column (4.6 mm×150 mm, 5 um. Phenomenex. Torrance, Calif.). As a mobile phase A, water containing 0.1% formic acid/acetonitrile (80/20, v/v) was used, and as a mobile phase B, acetonitrile/0.1% formic acid (90/10, v/v) was used. The mobile phase A/B (70/30, v/v) was flowed at a rate of 1 ml·min^−1 using a gradient pump (LC-20AD, Shimadzu, Kyoto, Japan). Elution solutions were detected by UV at 260 nm.
In order to examine whether or not CYP102A1 (P450 BM3) may oxidize atorvastatin, the abilities of the wild-type CYP102A1 (P450 BM3), the mutants thereof, and the chimeras derived from the CYP102A1 mutants to oxidize atorvastatin were measured at a fixed substrate concentration (80 μM).
In order to recognize production rate of atorvastatin oxides by wild-type CYP102A1, CYP102A1 mutants, and chimeras derived from the CYP102A1 mutants, the turnover number was determined in the reaction using 80 μM statin.
The term “turnover number” means the number of substrate molecules that a molecule of an enzyme may convert into products per minute and indicates conversion frequency.
The production rate of 4-hydroxylated metabolite was determined by HPLC as described above.

[2] = Total turnover number (TTN) of atorvastatin oxidation; type: biochemical; conditions: reacted for 4 hours
Method: In order to recognize production rate of atorvastatin metabolites by the CYP102A1 mutant (#16 in Table 2) and the chimeras (#16A1V2 and #17A1V2) derived from the CYP102A1 mutants, total turnover numbers (TTNs; mol product/mol catalyst) were determined in reactions using total 240 μM atorvastatin.
The term “total turnover number (TTN)” means the number of substrate molecules converted into metabolites by enzymes for the total reaction time.
The total turnover numbers (TTNs) were determined by comparing the results under three conditions. First, the reaction was performed by adding a NADPH-generating system at 37° C. for 1 hour in the presence of 80 μM substrate. In addition, second, after reaction was performed for 1 hour in the presence of 80 μM substrate, 80 μM substrate was additionally added to the reaction mixture, and the reaction was further performed for 1 hour. Finally, after reaction was performed for 1 hour in the presence of 80 μM substrate, 80 μM substrate was additionally added to the reaction mixture, and the reaction was further performed for 1 hour. Then, 80 μM substrate was additionally added to the reaction mixture, and the reaction was further performed for 2 hours.
The production rate of the atorvastatin metabolites was determined using HPLC. […]

Molecule	turnover number in oxidation of atorvastatin [1]	activity compared with human CYP3A4 (turnover number) [1]	activity compared with human CYP3A4 (total turnover number) [2]
Mutant #16: CYP102A1 mutant R47L/F81I/F87V/E143G/L188Q/E267V (SEQ ID NO 18) (protein, CYP102A1 mutant#16) MTIKEMPQPKTFGELKNLPLLNTDKPVQALMKIADELGEIFKFEAPGLVTRYLSSQRLIKEACDESRFDKNLSQALKFVRDIAGDGLVTSWTHEKNWKKAHNILLPSFSQQAMKGYHAMMVDIAVQLVQKWERLNADEHIEVPGDMTRLTLDTIGLCGFNYRFNSFYRDQPHPFITSMVRALDEAMNKQQRANPDDPAYDENKRQFQEDIKVMNDLVDKIIADRKASGEQSDDLLTHMLNGKDPETGEPLDDENIRYQIITFLIAGHVTTSGLLSFALYFLVKNPHVLQKAAEEAARVLVDPVPSYKQVKQLKYVGMVLNEALRLWPTAPAFSLYAKEDTVLGGEYPLEKGDELMVLIPQLHRDKTIWGDDVEEFRPERFENPSAIPQHAFKPFGNGQRACIGQQFALHEATLVLGMMLKHFDFEDHTNYELDIKETLTLKPEGFVVKAKSKKIPLGGIPSPSTEQSAKKVRKKAENAHNTPLLVLYGSNMGTAEGTARDLADIAMSKGFAPQVATLDSHAGNLPREGAVLIVTASYNGHPPDNAKQFVDWLDQASADEVKGVRYSVFGCGDKNWATTYQKVPAFIDETLAAKGAENIADRGEADASDDFEGTYEEWREHMWSDVAAYFNLDIENSEDNKSTLSLQFVDSAADMPLAKMHGAFSTNVVASKELQQPGSARSTRHLEIELPKEASYQEGDHLGVIPRNYEGIVNRVTARFGLDASQQIRLEAEEEKLAHLPLAKTVSVEELLQYVELQDPVTRTQLRAMAAKTVCPPHKVELEALLEKQAYKEQVLAKRLTMLELLEKYPACEMKFSEFIALLPSIRPRYYSISSSPRVDEKQASITVSVVSGEAWSGYGEYKGIASNYLAELQEGDTITCFISTPQSEFTLPKDPETPLIMVGPGTGVAPFRGFVQARKQLKEQGQSLGEAHLYFGCRSPHEDYLYQEELENAQSEGIITLHTAFSRMPNQPKTYVQHVMEQDGKKLIELLDQGAHFYICGDGSQMAPAVEATLMKSYADVHQVSEADARLWLQQLEEKGRYAKDVWAG	high turnover number		
Mutant #17: CYP102A1 mutant R47L/E64G/F81I/F87V/E143G/L188Q/E267V (SEQ ID NO 20) (protein, CYP102A1 mutant #17) MTIKEMPQPKTFGELKNLPLLNTDKPVQALMKIADELGEIFKFEAPGLVTRYLSSQRLIKEACDGSRFDKNLSQALKFVRDIAGDGLVTSWTHEKNWKKAHNILLPSFSQQAMKGYHAMMVDIAVQLVQKWERLNADEHIEVPGDMTRLTLDTIGLCGFNYRFNSFYRDQPHPFITSMVRALDEAMNKQQRANPDDPAYDENKRQFQEDIKVMNDLVDKIIADRKASGEQSDDLLTHMLNGKDPETGEPLDDENIRYQIITFLIAGHVTTSGLLSFALYFLVKNPHVLQKAAEEAARVLVDPVPSYKQVKQLKYVGMVLNEALRLWPTAPAFSLYAKEDTVLGGEYPLEKGDELMVLIPQLHRDKTIWGDDVEEFRPERFENPSAIPQHAFKPFGNGQRACIGQQFALHEATLVLGMMLKHFDFEDHTNYELDIKETLTLKPEGFVVKAKSKKIPLGGIPSPSTEQSAKKVRKKVENAHNTPLLVLYGSNMGTAEGTARDLADIAMSKGFAPQVATLDSHAGNLPREGAVLIVTASYNGHPPDNAKQFVDWLDQASADDVKGVRYSVFGCGDKNWATTYQKVPAFIDETLAAKGAENIADRGEADASDDFEGTYEEWREHMWSDVAAYFNLDIENSEDNKSTLSLQFVDSAADMPLAKMHGAFSANVVASKELQQLGSERSTRHLEIALPKEASYQEGDHLGVIPRNYEGIVNRVTARFGLDASQQIRLEAEEEKLAHLPLGKTVSVEELLQYVELQDPVTRTQLRAMAAKTVCPPHKVELEALLEKQAYKEQVLAKRLTMLELLEKYPACEMEFSEFIALLPSISPRYYSISSSPHVDEKQASITVSVVSGEAWSGYGEYKGIASNYLANLQEGDTITCFVSTPQSGFTLPKDSETPLIMVGPGTGVAPFRGFVQARKQLKEQGQSLGEAHLYFGCRSPHEDYLYQEELENAQNEGIITLHTAFSRVPNQPKTYVQHVMERDGKKLIELLDQGAHFYICGDGSQMAPDVEATLMKSYADVYEVSEADARLWLQQLEEKGRYAKDVWAG	high turnover number		
#16A1V2: chimera: heme domain of mutant #16 fused to V2 reductase domain of Table 4 (SEQ ID NO 22) (protein, chimera #16A1V2) MTIKEMPQPKTFGELKNLPLLNTDKPVQALMKIADELGEIFKFEAPGRVTRYLSSQRLIKEACDESRFDKNLSQALKFVRDFAGDGLFTSWTHEKNWKKAHNILLPSFSQQAMKGYHAMMVDIAVQLVQKWERLNADEHIEVPEDMTRLTLDTIGLCGFNYRFNSFYRDQPHPFITSMVRALDEAMNKLQRANPDDPAYDENKRQFQEDIKVMNDLVDKIIADRKASGEQSDDLLTHMLNGKDPETGEPLDDENIRYQIITFLIAGHETTSGLLSFALYFLVKNPHVLQKAAEEAARVLVDPVPSYKQVKQLKYVGMVLNEALRLWPTAPAFSLYAKEDTVLGGEYPLEKGDELMVLIPQLHRDKTIWGDDVEEFRPERFENPSAIPQHAFKPFGNGQRACIGQQFALHEATLVLGMMLKHFDFEDHTNYELDIKETLTLKPEGFVVKAKSKKIPLGGIPSPSTEQSAKKVRKKVENAHNTPLLVLYGSNMGTAEGTARDLADIAMSKGFAPQVATLDSHAGNLPREGAVLIVTASYNGHPPDNAKQFVDWLDQASADDVKGVRYSVFGCGDKNWATTYQKVPAFIDETLAAKGAENIADRGEADASDDFEGTYEEWREHMWSDVAAYFNLDIENSEDNKSTLSLQFVDSAADMPLAKMHGAFSANVVASKELQQLGSERSTRHLEIALPKEASYQEGDHLGVIPRNYEGIVNRVTARFGLDASQQIRLEAEEEKLAHLPLGKTVSVEELLQYVELQDPVTRTQLRAMAAKTVCPPHKVELEALLEKQAYKEQVLAKRLTMLELLEKYPACEMEFSEFIALLPSISPRYYSISSSPHVDEKQASITVSVVSGEAWSGYGEYKGIASNYLANLQEGDTITCFVSTPQSGFTLPKDSETPLIMVGPGTGVAPFRGFVQARKQLKEQGQSLGEAHLYFGCRSPHEDYLYQEELENAQNEGIITLHTAFSRVPNQPKTYVQHVMERDGKKLIELLDQGAHFYICGDGSQMAPDVEATLMKSYADVYEVSEADARLWLQQLEEKGRYAKDVWAG	high turnover number; also recorded: most excellent turnover number	same activity as that of the human CYP3A4	activity higher than that of the human CYP3A4
